What was measured:
Test in all cases: SEC; TSK-Gel G2000SWXL 7.8 x 300 mm column, Waters Alliance HPLC, detection at 220 nm; lyophilizate dissolved in water for injection and diluted, measured directly; peaks assigned as aggregates, tetramer and monomer
P00805 = test system: P00805
[1] = target: Spectrila (recombinant E. coli-derived L-asparaginase) (E. coli), P00805
[2] = target: Onconase (E. coli-derived L-asparaginase preparation from India) (E. coli), P00805

| Molecule | percent tetramer (SEC peak area) (P00805) | other results |
| --- | --- | --- |
| Spectrila (recombinant E. coli-derived L-asparaginase) | 99.4% |  |
| Onconase (E. coli-derived L-asparaginase preparation from India) | 82.7%[*] |  |
| Spectrila (recombinant E. coli-derived L-asparaginase), P00805 23-348 (enzyme, modifications not checked) LPNITILATGGTIAGGGDSATKSNYTVGKVGVENLVNAVPQLKDIANVKGEQVVNIGSQDMNDDVWLTLAKKINTDCDKTDGFVITHGTDTMEETAYFLDLTVKCDKPVVMVGAMRPSTSMSADGPFNLYNAVVTAADKASANRGVLVVMNDTVLDGRDVTKTNTTDVATFKSVNYGPLGYIHNGKIDYQRTPARKHTSDTPFDVSKLNELPKVGIVYNYANASDLPAKALVDAGYDGIVSAGVGNGNLYKTVFDTLATAAKTGTAVVRSSRVPTGATTQDAEVDDAKYGFVASGTLNPQKARVLLQLALTQTKDPQQIQQIFNQY |  | stoichiometry N [1]: 4 |
| Onconase (E. coli-derived L-asparaginase preparation from India), P00805 23-348 (enzyme, modifications not checked) LPNITILATGGTIAGGGDSATKSNYTVGKVGVENLVNAVPQLKDIANVKGEQVVNIGSQDMNDDVWLTLAKKINTDCDKTDGFVITHGTDTMEETAYFLDLTVKCDKPVVMVGAMRPSTSMSADGPFNLYNAVVTAADKASANRGVLVVMNDTVLDGRDVTKTNTTDVATFKSVNYGPLGYIHNGKIDYQRTPARKHTSDTPFDVSKLNELPKVGIVYNYANASDLPAKALVDAGYDGIVSAGVGNGNLYKTVFDTLATAAKTGTAVVRSSRVPTGATTQDAEVDDAKYGFVASGTLNPQKARVLLQLALTQTKDPQQIQQIFNQY |  | stoichiometry N [2]: 4 |

Source: paper PMC10270636
